Literature values, collected in US11207384B2, “Rapid-acting insulin compositions” (Eli Lilly and Company, priority 2017, dated 2021).

How the values were obtained:
[1] = for time until maximum circulating insulin concentration is reached: following the injection
[2] = on a molar basis
insulin receptor = target: T1, insulin receptor (Homo sapiens, UniProt P06213); details: insulin receptor binding in cultured lymphocytes, human placenta and human liver, glucose transport in adipocytes
T1 construct: host or cells: cultured lymphocytes, human placenta, human liver

Row | Substance | time until maximum circulating insulin concentration is reached [1] [min] | kinetics compared to human insulin (in words) ([1]; Tmax, half-life, Cmax) | effect after subcutaneous injection compared with soluble human insulin (in words) ([1]; subcutaneous injection) | potency relative to human insulin (in words) [2] | equivalence to insulin in in vitro tests (in words) (insulin receptor)
1 | insulin aspart | 50 to 90 | – | – | – | –
2 | insulin glulisine | 50 to 90 | – | – | – | –
3 | insulin lispro | 50 to 90 | shorter Tmax and half-life and with a higher Cmax | more rapid and of shorter duration than that of injected soluble human insulin | equipotent to human insulin on a molar basis | biologically equivalent to insulin
